Biological target: the molecule itself
Experiment: gel filtration in the presence of DNA and Mg++ (self-association)

B1: nicking endonuclease N.BstNBI (enzyme)
chain: MAKKVNWYVSCSPRSPEKIQPELKVLANFEGSYWKGVKGYKAQEAFAKELAALPQFLGTTYKKEAAFSTRDRVAPMKTYGFVFVDEEGYLRITEAGKMLANNRRPKDVFLKQLVKWQYPSFQHKGKEYPEEEWSINPLVFVLSLLKKVGGLSKLDIAMFCLTATNNNQVDEIAEEIMQFRNEREKIKGQNKKLEFTENYFFKRFEKIYGNVGKIREGKSDSSHKSKIETKMRNARDVADATTRYFRYTGLFVARGNQLVLNPEKSDLIDEIISSSKVVKNYTRVEEFHEYYGNPSLPQFSFETKEQLLDLAHRIRDENTRLAEQLVEHFPNVKVEIQVLEDIYNSLNKKVDVETLKDVIYHAKELQLELKKKKLQADFNDPRQLEEVIDLLEVYHEKKNVIEEKIKARFIANKNTVFEWLTWNGFIILGNALEYKNNFVIDEELQPVTHAAGNQPDMEIIYEDFIVLGEVTTSKGATQFKMESEPVTRHYLNKKKELEKQGVEKELYCLFIAPEINKNTFEEFMKYNIVQNTRIIPLSLKQFNMLLMVQKKLIEKGRRLSSYDIKNLMVSLYRTTIECERKYTQIKAGLEETLNNWVVDKEVRF
notes: Tested for self-association by gel filtration under the same condition as MlyI; No dimers were observed
binding result: no binding

Reference: patent US6395523 (NEW ENGLAND BIOLABS, dated 2002)
